# Target: HLA-A*02:01 (Homo sapiens, UniProt P04439, D140Y/D185E/D98H/E176V/E277Q/G131W/G231S/I119V/I121R/I166T/I218V/L300P/L318F/N151K/N90K/P208A/P217A/Q86G/Q94H/R138H/R169H/T345S)
# Assay: MHC binding assay (UV-ligand exchange, β2m ELISA, peptide exchange yield)
# Details: binding to HLA-A*02:01 ranged by peptide exchange yield (UV-ligand exchange, β2m ELISA)
# From the text: Candidate peptides for T cell based therapies according to the present invention were further tested for their MHC binding capacity (affinity). The individual peptide-MHC complexes were produced by UV-ligand exchange, where a UV-sensitive peptide is cleaved upon UV-irradiation, and exchanged with the peptide of interest as analyzed. Only peptide candidates that can effectively bind and stabilize the peptide-receptive MHC molecules prevent dissociation of the MHC complexes. To determine the yield of the exchange reaction, an ELISA was performed based on the detection of the light chain (β2 m) of stabilized MHC complexes. The assay was performed as generally described in Rodenko et al. (Rodenko et al., 2006).
# 96 well MAXISorp plates (NUNC) were coated over night with 2 μg/ml streptavidin in PBS at room temperature, washed 4× and blocked forth at 37° C. in 2% BSA containing blocking buffer. Refolded HLA-A*02:01/MLA-001 monomers served as standards, covering the range of 15-500 ng/ml. Peptide-MHC monomers of the UV-exchange reaction were diluted 100 fold in blocking buffer. Samples were incubated for 1 h at 37° C., washed four times, incubated with 2 ug/ml HRP conjugated anti-β2 m for 1 h at 37° C., washed again and detected with TMB solution that is stopped with […]. Absorption was measured at 450 nm. Candidate peptides that show a high exchange yield (preferably higher than 50%, most preferred higher than 75%) are generally preferred for a generation and production of antibodies or fragments thereof, and/or T cell receptors or fragments thereof, as they show sufficient avidity to the MHC molecules and prevent dissociation of the MHC complexes.
row,Substance,Peptide exchange
1,1 (ILLQASVQV; listed as Homo sapiens) [compound 1],++++ (>75% = ++++)
2,2 (GLLKAYSIRTA; listed as Homo sapiens) [compound 2],+++ (>50 = +++)
3,3 (YLDEIPPKFSM; listed as Homo sapiens) [compound 3],++++ (>75% = ++++)
4,7 (QMFEGQILDV; listed as Homo sapiens) [compound 7],+++ (>50 = +++)
5,8 (ALSFSSSAGPGLLKA; listed as Homo sapiens) [compound 8],+++ (>50 = +++)
6,11 (AMAELRVVV; listed as Homo sapiens) [compound 11],++++ (>75% = ++++)
7,12 (GVALTVTGV; listed as Homo sapiens) [compound 12],++++ (>75% = ++++)
8,13 (FLEEKEQAAL; listed as Homo sapiens) [compound 13],+++ (>50 = +++)
9,18 (SIAAYNPVV; listed as Homo sapiens) [compound 18],++++ (>75% = ++++)
10,19 (SLATTLTKI; listed as Homo sapiens) [compound 19],+++ (>50 = +++)
11,20 (YLPDSLTQL; listed as Homo sapiens) [compound 20],++++ (>75% = ++++)
12,21 (TLIEDDALNGA; listed as Homo sapiens) [compound 21],+++ (>50 = +++)
13,25 (SLDSSGFSL; listed as Homo sapiens) [compound 25],+++ (>50 = +++)
14,26 (GLALLYSGV; listed as Homo sapiens) [compound 26],++++ (>75% = ++++)
15,28 (GLIDSLMAYV; listed as Homo sapiens) [compound 28],++++ (>75% = ++++)
16,31 (SLFDGIATGL; listed as Homo sapiens) [compound 31],++++ (>75% = ++++)
17,32 (YQAPDIDVQL; listed as Homo sapiens) [compound 32],+++ (>50 = +++)
18,33 (VLFGEITRL; listed as Homo sapiens) [compound 33],+++ (>50 = +++)
19,34 (ALLDEQQVNV; listed as Homo sapiens) [compound 34],+++ (>50 = +++)
20,35 (KLPEPPPLA; listed as Homo sapiens) [compound 35],+++ (>50 = +++)
21,36 (ALWDEFNQL; listed as Homo sapiens) [compound 36],+++ (>50 = +++)
22,37 (ILSAILVHL; listed as Homo sapiens) [compound 37],+++ (>50 = +++)
23,38 (TLTSIIVAV; listed as Homo sapiens) [compound 38],+++ (>50 = +++)
24,39 (AMASHLTST; listed as Homo sapiens) [compound 39],+++ (>50 = +++)
25,40 (VIADRVVTV; listed as Homo sapiens) [compound 40],+++ (>50 = +++)

row,Substance,Peptide exchange
1,42 (FLIDASQRV; listed as Homo sapiens) [compound 42],+++ (>50 = +++)
2,43 (FLIESKLLSL; listed as Homo sapiens) [compound 43],++++ (>75% = ++++)
3,44 (GLAQDPKSLQL; listed as Homo sapiens) [compound 44],+++ (>50 = +++)
4,45 (IIDSSPTAL; listed as Homo sapiens) [compound 45],++ (>20% = ++)
5,47 (VLMDDTDPL; listed as Homo sapiens) [compound 47],+++ (>50 = +++)
6,48 (VLMDDTDPLV; listed as Homo sapiens) [compound 48],+++ (>50 = +++)
7,49 (SLIGGTNFV; listed as Homo sapiens) [compound 49],+++ (>50 = +++)
8,52 (SLATLEGIQL; listed as Homo sapiens) [compound 52],+++ (>50 = +++)
9,54 (ALNDEINFL; listed as Homo sapiens) [compound 54],+++ (>50 = +++)
10,55 (KLLETKWTL; listed as Homo sapiens) [compound 55],++++ (>75% = ++++)
11,56 (ILLRDLPTL; listed as Homo sapiens) [compound 56],+++ (>50 = +++)
12,58 (GLDSSVNVQGSVL; listed as Homo sapiens) [compound 58],+++ (>50 = +++)
13,62 (GQLDFSEFL; listed as Homo sapiens) [compound 62],+++ (>50 = +++)
14,63 (LLAGLLVGV; listed as Homo sapiens) [compound 63],+++ (>50 = +++)
15,64 (GLLSQGSPL; listed as Homo sapiens) [compound 64],+++ (>50 = +++)
16,65 (IITDLLRSV; listed as Homo sapiens) [compound 65],++++ (>75% = ++++)
17,66 (SLWEENQAL; listed as Homo sapiens) [compound 66],+++ (>50 = +++)
18,67 (FLTPPLLSV; listed as Homo sapiens) [compound 67],++++ (>75% = ++++)
19,68 (TMIVSLAAV; listed as Homo sapiens) [compound 68],+++ (>50 = +++)
20,69 (QIWDKILSV; listed as Homo sapiens) [compound 69],+++ (>50 = +++)
21,70 (KLAEISLGV; listed as Homo sapiens) [compound 70],++ (>20% = ++)
22,71 (LLSEDFVSV; listed as Homo sapiens) [compound 71],++ (>20% = ++)
23,72 (SLFTGLRSI; listed as Homo sapiens) [compound 72],+++ (>50 = +++)
24,73 (VLKVFLENV; listed as Homo sapiens) [compound 73],++++ (>75% = ++++)
25,74 (LLQEGEVYSA; listed as Homo sapiens) [compound 74],+++ (>50 = +++)

row,Substance,Peptide exchange
1,76 (AVVSSVNTV; listed as Homo sapiens) [compound 76],+++ (>50 = +++)
2,77 (KVFGGFQVV; listed as Homo sapiens) [compound 77],++++ (>75% = ++++)
3,78 (FIPDFAVAI; listed as Homo sapiens) [compound 78],++++ (>75% = ++++)
4,79 (FLDPATPRV; listed as Homo sapiens) [compound 79],+++ (>50 = +++)
5,80 (ILLDTPLFLL; listed as Homo sapiens) [compound 80],+++ (>50 = +++)
6,81 (SLDKGTLYI; listed as Homo sapiens) [compound 81],+++ (>50 = +++)
7,82 (NLHNSYYSV; listed as Homo sapiens) [compound 82],+++ (>50 = +++)
8,83 (VILDKYYFL; listed as Homo sapiens) [compound 83],++++ (>75% = ++++)
9,84 (ALDPASISV; listed as Homo sapiens) [compound 84],+++ (>50 = +++)
10,85 (HLLDSKVPSV; listed as Homo sapiens) [compound 85],+++ (>50 = +++)
11,86 (FLISLIISV; listed as Homo sapiens) [compound 86],+++ (>50 = +++)
12,87 (RLLELLQEA; listed as Homo sapiens) [compound 87],++++ (>75% = ++++)
13,88 (ALASLENHV; listed as Homo sapiens) [compound 88],+++ (>50 = +++)
14,89 (YLFPETEFI; listed as Homo sapiens) [compound 89],+++ (>50 = +++)
15,90 (GMTELYFQL; listed as Homo sapiens) [compound 90],+++ (>50 = +++)
16,91 (NLDAATYQV; listed as Homo sapiens) [compound 91],+++ (>50 = +++)
17,92 (ALLDEQQVNVLL; listed as Homo sapiens) [compound 92],+++ (>50 = +++)
18,93 (LLDLIQTKV; listed as Homo sapiens) [compound 93],+++ (>50 = +++)
19,94 (ALADGVPVAL; listed as Homo sapiens) [compound 94],+++ (>50 = +++)
20,95 (YLIGQHVTA; listed as Homo sapiens) [compound 95],++++ (>75% = ++++)
21,96 (KLTNGIWVL; listed as Homo sapiens) [compound 96],+++ (>50 = +++)
22,97 (TVGPGLLGV; listed as Homo sapiens) [compound 97],+++ (>50 = +++)
23,98 (YLIGLDPENLAL; listed as Homo sapiens) [compound 98],+++ (>50 = +++)
24,99 (ALIGDDVGL; listed as Homo sapiens) [compound 99],+++ (>50 = +++)

# Source: patent publication US12084522B2, “Peptides, combination of peptides, and cell based medicaments for use in immunotherapy against urinary bladder cancer and other cancers” (Immatics Biotechnologies GmbH, priority 2016, dated 2024)
